# Test results taken from US20210071139A1.
# Experiments:
# Test in all cases: anti-TOX IP from EL4 nuclear extract, LC-MS/MS, MiST
# [1] = molecular target: Afg3l1 (UniProt Q920A7)
# [2] = molecular target: Aldh18a1 (UniProt Q9Z110)
# [3] = molecular target: Anln (UniProt Q8K298)
# [4] = molecular target: Cd2ap (UniProt Q9JLQ0)
# [5] = molecular target: Cdc23 (UniProt Q8BGZ4)
# [6] = molecular target: Cdc27 (UniProt A2A6Q5)
# [7] = molecular target: Cdk9 (UniProt Q99J95)
# [8] = molecular target: Chtop (UniProt Q9CY57)
# [9] = molecular target: Ddx55 (UniProt Q6ZPL9)
# [10] = molecular target: Dhx30 (UniProt Q99PU8)
# [11] = molecular target: Eif4g2 (UniProt Q62448)
# [12] = molecular target: Eif4h (UniProt Q9WUK2)
# [13] = molecular target: Eif5b (UniProt Q05D44)
# [14] = molecular target: Kifc5b; Kifc1
# [15] = molecular target: Larp7 (UniProt Q05CL8)
# [16] = molecular target: Mars (UniProt Q68FL6)
# [17] = molecular target: Metap2 (UniProt O08663)
# [18] = molecular target: Pml (UniProt Q60953)
# [19] = molecular target: Pno1 (UniProt Q9CPS7)
# [20] = molecular target: Ptcd3 (UniProt Q14C51)
# [21] = molecular target: Rpl36a (UniProt P83882)
# [22] = molecular target: Terf2ip (UniProt Q91VL8)
# [23] = molecular target: Thoc2 (UniProt B1AZI6)
# [24] = molecular target: Trip12 (UniProt G5E870)
# [25] = molecular target: Utp18 (UniProt Q5SSI6)
# Chain of Cdk9 (Q99J95 whole entry): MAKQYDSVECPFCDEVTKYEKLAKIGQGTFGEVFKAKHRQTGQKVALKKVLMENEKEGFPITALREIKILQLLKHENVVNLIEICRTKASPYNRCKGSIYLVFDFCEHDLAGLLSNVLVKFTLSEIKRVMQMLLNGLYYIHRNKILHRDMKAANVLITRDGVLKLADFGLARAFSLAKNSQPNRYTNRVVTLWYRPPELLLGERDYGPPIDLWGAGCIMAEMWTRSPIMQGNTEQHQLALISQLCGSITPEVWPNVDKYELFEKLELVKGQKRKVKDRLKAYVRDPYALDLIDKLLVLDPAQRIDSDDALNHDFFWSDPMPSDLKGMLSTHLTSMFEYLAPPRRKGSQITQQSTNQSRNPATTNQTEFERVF
# Chain of Cd2ap (Q9JLQ0 whole entry): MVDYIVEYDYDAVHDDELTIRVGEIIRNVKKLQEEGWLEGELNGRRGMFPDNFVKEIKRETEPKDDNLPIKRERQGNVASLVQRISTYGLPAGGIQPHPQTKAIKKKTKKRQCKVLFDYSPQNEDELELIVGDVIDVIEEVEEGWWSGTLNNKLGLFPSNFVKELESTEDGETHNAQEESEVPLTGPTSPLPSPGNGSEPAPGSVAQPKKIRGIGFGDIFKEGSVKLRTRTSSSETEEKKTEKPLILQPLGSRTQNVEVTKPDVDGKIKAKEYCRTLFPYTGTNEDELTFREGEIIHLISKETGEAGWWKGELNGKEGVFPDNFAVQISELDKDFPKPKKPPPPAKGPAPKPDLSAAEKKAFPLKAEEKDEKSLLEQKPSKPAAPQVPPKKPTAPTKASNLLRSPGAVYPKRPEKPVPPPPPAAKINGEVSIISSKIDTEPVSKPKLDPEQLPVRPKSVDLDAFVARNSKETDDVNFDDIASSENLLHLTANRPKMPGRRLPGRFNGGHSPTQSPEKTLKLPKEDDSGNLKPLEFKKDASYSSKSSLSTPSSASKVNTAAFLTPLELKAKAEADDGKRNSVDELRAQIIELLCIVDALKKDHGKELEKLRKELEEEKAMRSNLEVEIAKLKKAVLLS
# Chain of TOX (Q66JW3 whole entry): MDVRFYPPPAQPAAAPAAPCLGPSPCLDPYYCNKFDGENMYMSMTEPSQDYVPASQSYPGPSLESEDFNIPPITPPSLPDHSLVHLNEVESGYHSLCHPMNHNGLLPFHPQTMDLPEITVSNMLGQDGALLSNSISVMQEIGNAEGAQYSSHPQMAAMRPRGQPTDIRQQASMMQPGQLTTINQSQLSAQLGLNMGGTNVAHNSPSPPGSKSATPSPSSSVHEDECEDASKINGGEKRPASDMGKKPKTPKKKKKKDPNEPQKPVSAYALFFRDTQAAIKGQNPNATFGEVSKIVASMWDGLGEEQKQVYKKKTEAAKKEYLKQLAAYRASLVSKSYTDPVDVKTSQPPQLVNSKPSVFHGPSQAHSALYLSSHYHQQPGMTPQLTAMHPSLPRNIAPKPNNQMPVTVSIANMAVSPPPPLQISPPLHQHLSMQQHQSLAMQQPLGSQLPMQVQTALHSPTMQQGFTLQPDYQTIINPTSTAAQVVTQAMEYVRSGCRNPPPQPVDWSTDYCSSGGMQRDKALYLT
# Chain of Terf2ip (Q91VL8 2-393 limits assumed): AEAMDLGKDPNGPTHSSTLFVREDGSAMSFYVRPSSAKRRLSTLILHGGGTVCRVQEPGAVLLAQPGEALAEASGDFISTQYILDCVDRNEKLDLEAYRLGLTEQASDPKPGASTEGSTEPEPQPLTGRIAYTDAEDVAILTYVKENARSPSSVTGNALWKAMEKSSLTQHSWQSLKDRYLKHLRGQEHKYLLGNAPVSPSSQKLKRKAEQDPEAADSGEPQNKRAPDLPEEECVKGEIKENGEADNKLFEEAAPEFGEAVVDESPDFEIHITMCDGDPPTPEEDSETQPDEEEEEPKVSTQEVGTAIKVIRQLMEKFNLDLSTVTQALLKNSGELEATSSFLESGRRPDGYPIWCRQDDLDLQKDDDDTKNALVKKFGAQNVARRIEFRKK
# Chain of Chtop (Q9CY57 2-249 limits assumed): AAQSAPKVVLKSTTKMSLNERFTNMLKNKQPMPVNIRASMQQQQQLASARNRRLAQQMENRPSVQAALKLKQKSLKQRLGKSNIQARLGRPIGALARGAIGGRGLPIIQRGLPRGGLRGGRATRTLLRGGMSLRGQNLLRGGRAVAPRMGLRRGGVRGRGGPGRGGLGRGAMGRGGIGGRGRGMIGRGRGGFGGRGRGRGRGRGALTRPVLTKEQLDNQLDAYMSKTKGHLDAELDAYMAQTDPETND
# Chain of Pml (Q60953 whole entry): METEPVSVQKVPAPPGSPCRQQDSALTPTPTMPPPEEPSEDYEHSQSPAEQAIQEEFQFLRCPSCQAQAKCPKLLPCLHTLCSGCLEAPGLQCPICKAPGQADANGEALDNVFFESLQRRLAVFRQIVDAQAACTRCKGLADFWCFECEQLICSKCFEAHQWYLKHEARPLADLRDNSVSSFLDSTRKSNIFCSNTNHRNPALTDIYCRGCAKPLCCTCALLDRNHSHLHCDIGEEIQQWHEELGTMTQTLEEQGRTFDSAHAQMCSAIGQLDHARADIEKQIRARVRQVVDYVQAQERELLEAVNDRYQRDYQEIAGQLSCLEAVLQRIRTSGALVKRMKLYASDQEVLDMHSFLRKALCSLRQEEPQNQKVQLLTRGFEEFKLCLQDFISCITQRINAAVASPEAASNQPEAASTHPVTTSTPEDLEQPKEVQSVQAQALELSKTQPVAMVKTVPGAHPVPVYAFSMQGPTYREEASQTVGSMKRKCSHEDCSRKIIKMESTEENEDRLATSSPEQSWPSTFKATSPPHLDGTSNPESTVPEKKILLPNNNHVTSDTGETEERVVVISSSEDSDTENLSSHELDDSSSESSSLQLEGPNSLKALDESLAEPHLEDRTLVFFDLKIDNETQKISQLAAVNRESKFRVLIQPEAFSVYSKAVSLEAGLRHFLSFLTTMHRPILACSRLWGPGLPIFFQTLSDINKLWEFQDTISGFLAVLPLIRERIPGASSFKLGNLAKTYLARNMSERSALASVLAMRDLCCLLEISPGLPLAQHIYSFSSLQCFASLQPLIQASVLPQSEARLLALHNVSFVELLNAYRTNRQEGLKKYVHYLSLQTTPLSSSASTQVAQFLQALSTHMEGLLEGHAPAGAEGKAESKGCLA
# Chain of Ddx55 (Q6ZPL9 whole entry): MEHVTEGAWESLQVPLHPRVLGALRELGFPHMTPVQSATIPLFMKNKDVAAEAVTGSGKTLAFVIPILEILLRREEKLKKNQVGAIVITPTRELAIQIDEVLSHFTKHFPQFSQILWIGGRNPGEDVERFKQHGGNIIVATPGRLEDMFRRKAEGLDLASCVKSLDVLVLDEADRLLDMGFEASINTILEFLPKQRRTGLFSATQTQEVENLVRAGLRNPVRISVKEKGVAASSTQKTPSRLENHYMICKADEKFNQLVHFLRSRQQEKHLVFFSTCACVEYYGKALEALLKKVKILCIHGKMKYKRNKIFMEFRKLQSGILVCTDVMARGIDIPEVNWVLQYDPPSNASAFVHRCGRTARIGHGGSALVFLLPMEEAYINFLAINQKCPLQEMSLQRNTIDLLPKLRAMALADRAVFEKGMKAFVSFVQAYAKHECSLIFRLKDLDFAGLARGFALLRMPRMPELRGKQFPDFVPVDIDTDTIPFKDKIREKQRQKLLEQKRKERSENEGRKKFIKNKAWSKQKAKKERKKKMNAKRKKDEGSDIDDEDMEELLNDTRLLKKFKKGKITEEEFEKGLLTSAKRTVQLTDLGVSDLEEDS
# Chain of Anln (Q8K298 whole entry): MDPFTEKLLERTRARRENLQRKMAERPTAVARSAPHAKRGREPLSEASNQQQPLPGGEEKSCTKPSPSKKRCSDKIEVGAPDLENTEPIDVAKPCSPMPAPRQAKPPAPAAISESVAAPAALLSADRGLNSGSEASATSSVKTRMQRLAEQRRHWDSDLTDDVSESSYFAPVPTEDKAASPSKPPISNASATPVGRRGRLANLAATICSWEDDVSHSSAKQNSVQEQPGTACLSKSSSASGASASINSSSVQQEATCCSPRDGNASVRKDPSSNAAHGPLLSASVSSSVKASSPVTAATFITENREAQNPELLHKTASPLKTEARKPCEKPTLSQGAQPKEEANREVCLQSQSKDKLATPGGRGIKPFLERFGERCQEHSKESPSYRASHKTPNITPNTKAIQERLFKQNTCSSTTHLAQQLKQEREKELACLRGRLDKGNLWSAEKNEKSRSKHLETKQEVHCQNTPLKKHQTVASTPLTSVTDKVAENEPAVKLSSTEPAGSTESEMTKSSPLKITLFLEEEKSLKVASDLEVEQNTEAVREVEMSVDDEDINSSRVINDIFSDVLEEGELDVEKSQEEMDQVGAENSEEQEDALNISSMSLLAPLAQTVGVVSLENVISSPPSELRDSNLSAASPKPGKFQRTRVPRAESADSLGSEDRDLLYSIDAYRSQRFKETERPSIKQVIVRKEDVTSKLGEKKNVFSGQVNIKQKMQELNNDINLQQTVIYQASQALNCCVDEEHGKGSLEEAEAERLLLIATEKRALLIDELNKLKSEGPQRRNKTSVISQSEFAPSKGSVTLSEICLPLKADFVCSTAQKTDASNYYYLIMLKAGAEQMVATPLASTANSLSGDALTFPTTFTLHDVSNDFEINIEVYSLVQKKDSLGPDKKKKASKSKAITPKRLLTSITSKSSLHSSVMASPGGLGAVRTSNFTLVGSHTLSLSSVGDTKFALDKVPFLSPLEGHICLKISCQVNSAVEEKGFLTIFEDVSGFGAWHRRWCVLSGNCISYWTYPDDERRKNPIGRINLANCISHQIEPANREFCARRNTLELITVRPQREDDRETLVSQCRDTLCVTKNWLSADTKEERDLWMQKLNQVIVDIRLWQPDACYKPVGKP
substance,measurement,setting,value
TOX (from UniProt Q66JW3 1-526),Abundance,[1],2.15e-06
same,MiST Score,[1],0.874
same,Reproducibility,[1],0.61
same,Specificity,[1],1
same,Abundance,[2],9.69e-06
same,MiST Score,[2],0.887
same,Reproducibility,[2],0.702
same,Specificity,[2],0.979
same,Abundance,[3],4.57e-07
same,MiST Score,[3],0.861
same,Reproducibility,[3],0.567
same,Specificity,[3],1
same,Abundance,[4],5.85e-07
same,MiST Score,[4],0.879
same,Reproducibility,[4],0.628
same,Specificity,[4],1
same,Abundance,[5],6.55e-06
same,MiST Score,[5],0.872
same,Reproducibility,[5],0.758
same,Specificity,[5],0.931
same,Abundance,[6],6.71e-06
same,MiST Score,[6],0.87
same,Reproducibility,[6],0.597
same,Specificity,[6],1
same,Abundance,[7],1.6e-05
same,MiST Score,[7],0.865
same,Reproducibility,[7],0.581
same,Specificity,[7],1
same,Abundance,[8],0.000479
same,MiST Score,[8],0.862
same,Reproducibility,[8],0.936
same,Specificity,[8],0.837
same,Abundance,[9],2.21e-06
same,MiST Score,[9],0.863
same,Reproducibility,[9],0.574
same,Specificity,[9],1
same,Abundance,[10],2.07e-06
same,MiST Score,[10],0.89
same,Reproducibility,[10],0.892
same,Specificity,[10],0.897
same,Abundance,[11],4.84e-06
same,MiST Score,[11],0.866
same,Reproducibility,[11],0.887
same,Specificity,[11],0.864
same,Abundance,[12],1.07e-05
same,MiST Score,[12],0.869
same,Reproducibility,[12],0.595
same,Specificity,[12],1
same,Abundance,[13],7.46e-06
same,MiST Score,[13],0.878
same,Reproducibility,[13],0.771
same,Specificity,[13],0.933
same,Abundance,[14],1.73e-06
same,MiST Score,[14],0.88
same,Reproducibility,[14],0.63
same,Specificity,[14],1
same,Abundance,[15],9.12e-06
same,MiST Score,[15],0.859
same,Reproducibility,[15],0.896
same,Specificity,[15],0.849
same,Abundance,[16],3.23e-07
same,MiST Score,[16],0.877
same,Reproducibility,[16],0.619
same,Specificity,[16],1
same,Abundance,[17],1.54e-05
same,MiST Score,[17],0.881
same,Reproducibility,[17],0.927
same,Specificity,[17],0.868
same,Abundance,[18],8.97e-06
same,MiST Score,[18],0.858
same,Reproducibility,[18],0.557
same,Specificity,[18],1
same,Abundance,[19],0.000116
same,MiST Score,[19],0.884
same,Reproducibility,[19],0.988
same,Specificity,[19],0.845
same,Abundance,[20],1.85e-06
same,MiST Score,[20],0.88
same,Reproducibility,[20],0.631
same,Specificity,[20],1
same,Abundance,[21],0.000923
same,MiST Score,[21],0.895
same,Reproducibility,[21],0.679
same,Specificity,[21],1
same,Abundance,[22],2.33e-05
same,MiST Score,[22],0.869
same,Reproducibility,[22],0.595
same,Specificity,[22],1
same,Abundance,[23],1.6e-06
same,MiST Score,[23],0.859
same,Reproducibility,[23],0.9
same,Specificity,[23],0.848
same,Abundance,[24],1.4e-06
same,MiST Score,[24],0.866
same,Reproducibility,[24],0.585
same,Specificity,[24],1
same,Abundance,[25],1.83e-05
same,MiST Score,[25],0.865
same,Reproducibility,[25],0.582
same,Specificity,[25],1
